Results on three molecules are retold here after US20080152587A1 (Amgen, published 2008).

The term Kd denotes a measure of binding affinity in units of concentration. For orientation: koff means the first-order rate constant of dissociation. The kon is the second-order rate constant of association.

For assay [1], the target named is human urokinase-type plasminogen activator receptor (uPAR, CD87), cell-bound (human, UniProt Q03405 23-305). Briefly: cell-based or functional assay.
Assay [2] addresses T1, soluble recombinant human uPAR/His6 (R&D Systems, Cat. # 807-UK-100) (human, UniProt Q03405 23-303).
T1 construct: range 1-303; Bought protein; also called soluble uPAR; hu-uPAR
Briefly: low resolution Biacore. A general note: In SPR one partner is held on a chip, and binding of the other changes the refractive index at the surface.
Experimental: (§1) A high-density goat anti-human antibody surface over a CM5 Biacore™ chip was prepared using routine amine coupling. […] Each mAb was captured on a separate flow cell using a 30-second contact time at 10 μL/min followed by a 5-minute wash at a 100 μL/min flow rate for stabilization of the mAb baseline. […] All antigen samples were prepared in the running buffer.

Assay [3] concerns the target T2, murine uPAR (form not stated) (mouse, UniProt P35456 24-297, limits assumed).
T2 construct: also called mouse uPAR
T2 sequence (looked up): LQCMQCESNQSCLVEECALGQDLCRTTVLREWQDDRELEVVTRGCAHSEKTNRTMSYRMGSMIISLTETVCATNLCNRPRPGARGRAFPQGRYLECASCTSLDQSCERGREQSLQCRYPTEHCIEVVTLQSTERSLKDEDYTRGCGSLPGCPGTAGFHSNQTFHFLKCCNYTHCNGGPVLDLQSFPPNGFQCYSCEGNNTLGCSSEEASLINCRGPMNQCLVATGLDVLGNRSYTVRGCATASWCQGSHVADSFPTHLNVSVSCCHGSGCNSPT
Briefly: summary column Murine X-reactivity.

Assay [4] deals with T1, soluble recombinant human uPAR/His6 …. Briefly: low resolution Biacore, mAb captured by goat anti-human, hu-uPAR 312 nM.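 Note: surface plasmon resonance on a CM5 chip with goat anti-human antibody surface made by amine coupling, each mAb from supernatant captured per flow cell, kinetics fitted including mass transport.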
Experimental: as §1
A mass transport coefficient was used in fitting the data.
Assay [5] has as its target T3, cynomolgus monkey uPAR, cell-bound (cynomolgus monkey, UniProt Q9GK78 23-305).
T3 construct: whole, on cells; also called cyno-uPAR
The experiment in a line: FACS, GeoMean; cynomolgus uPAR expressed on 293T cells; antibody concentration not given. (In general: In flow cytometry, cells or beads pass a laser one at a time.)

Assay [6] concerns the target T4, lane 2: murine DI/DII-human DIII uPAR chimera (His-tagged).
T4 construct: The sheet prints only the lane number; also called Murine D1D2/Human D3
T4 uPAR ECD chimera: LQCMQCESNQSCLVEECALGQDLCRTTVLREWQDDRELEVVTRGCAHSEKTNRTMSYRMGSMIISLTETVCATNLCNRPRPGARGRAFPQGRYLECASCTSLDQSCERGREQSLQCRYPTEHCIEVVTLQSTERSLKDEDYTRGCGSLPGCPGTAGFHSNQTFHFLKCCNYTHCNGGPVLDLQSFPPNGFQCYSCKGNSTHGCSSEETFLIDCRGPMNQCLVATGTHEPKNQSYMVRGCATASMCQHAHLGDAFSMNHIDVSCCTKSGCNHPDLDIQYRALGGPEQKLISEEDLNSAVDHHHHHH
Briefly: Western blot of HEK293T culture supernatants with His-tagged uPAR proteins, probed with the antibody. In general terms: Immunoblotting shows a protein as a band on a membrane.
Text: Human-murine uPAR chimeras (His-tagged) were expressed in BEK293T cells and uPAR expression was detected using the anti-human uPAR mAbs as indicated.
Chimeric human-murine uPAR comprising murine D1/humanD2D3; murine D1/human D2/MuD3; and human D1D2/murineD3uPAR each with a C-terminal His tag were expressed as secreted proteins in HEK293T cells.

For assay [7], the target named is T5, recombinant cynomolgus uPAR ECD with C-terminal His tag (cynomolgus monkey, UniProt Q9GK78 23-303).
T5 construct: Used as conditioned medium of transfected HEK293 cells
Briefly: KinExA, solution equilibrium, human uPAR beads capture free antibody.
Experimental: Kinetic measurements of several of the antibodies were evaluated using the KinExA® method. This method involves solution-based determination of formal affinity measurements at equilibrium. […] The remaining active groups on the beads were blocked with 10 mg/ml BSA in 1 M Tris and stored in the blocking solution as recommended by the manufacturer. KinExA experiments were performed using an automated flow immunoassay system, KinExA 3000, in which beads coupled with human uPAR served as the solid phase.
The mixture was drawn through the human uPAR-coupled beads to accumulate unbound antibody. The captured antibody was detected using solutions containing a Cy5-conjugated goat anti-human IgG heavy and light chain specific secondary antibody in sample buffer. […] Three replicates of each sample were measured for all equilibrium experiments. The equilibrium dissociation constant (KD) was obtained from nonlinear regression analysis of the data using a one-site homogeneous binding model with an unknown ligand concentration contained within the KinExA software.

T3 sequence (Q9GK78 23-305): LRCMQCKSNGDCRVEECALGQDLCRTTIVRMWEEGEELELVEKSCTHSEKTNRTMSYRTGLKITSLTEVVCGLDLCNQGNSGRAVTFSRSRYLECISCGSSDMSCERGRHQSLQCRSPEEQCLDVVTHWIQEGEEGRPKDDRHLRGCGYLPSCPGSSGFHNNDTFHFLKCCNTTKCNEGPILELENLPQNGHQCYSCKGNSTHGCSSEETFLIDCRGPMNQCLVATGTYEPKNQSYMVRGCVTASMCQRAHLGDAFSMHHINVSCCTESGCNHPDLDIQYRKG

B1: fully human monoclonal antibody 4.18.1 (ATCC Accession Number PTA-7476) (antibody, V domains shown)
VH: EVQLVESGGGLIQPGGSLRLSCAASGFTVRNNYMNWVRQAPGKGLEWVSVIYTGGSTYYADSVKGRFTISRDNSRNTLYLQMNSLRAEDTAVYYCAREGAVAGFDYWGQGTLVTVSL
VL: EIVMTQFPATLSMSPGERATLSCRASQSVSSSLAWYQQTPGQAPRLLIYGASTRSTGFPARFSGIGSGTEFTLTISSLQSEDFAVYYCQQYGNWPLTFGQGTRLEIK
With B1, in assay [1], the “inhibition of adhesion of U937 cells to vitronectin at 2 µg/ml” value (“inhibition of adhesion of U937 cells” below) was around 90% and the “inhibition of plasminogen activation on U937 cells” value (“inhibition … on U937 cells” below) was above 90%. Further, the Kd in assay [2] was determined as 1.5 nM. In addition, in assay [3], the binding result is recorded as “no binding”. In assay [4], the Kd amounted to 1.5 nM, the koff amounted to 0.00016 s⁻¹ and the kon is 110000 M⁻¹ s⁻¹. In assay [5], the binding result was “binds”. Moreover, the binding result in assay [6] is “no binding”.

B2: fully human monoclonal antibody 2.19.2 (ATCC Accession Number PTA-7474) (antibody, V domains shown)
VH: QVQLVESGGGVVQPGRSLRLSCAASGFTFSSYGMHWVRQAPGKGLEWVAVIWYDGSNKYYADSVKGRFTISRDNSKNTLYLQMNSLRAEDTAVYYCARDQHIVVVTAILDYWGQGTLVTVSS
VL: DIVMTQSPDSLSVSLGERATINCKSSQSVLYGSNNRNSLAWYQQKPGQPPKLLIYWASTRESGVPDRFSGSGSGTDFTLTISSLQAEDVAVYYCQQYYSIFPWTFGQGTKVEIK
As for B2, the “inhibition of adhesion of U937 cells” value in assay [1] worked out at 90%. Also, the “inhibition … on U937 cells” value in assay [1] is above 90%. In addition, the Kd in assay [2] is 0.31 nM; in assay [7] it was 0.346 nM; in assay [4], 0.31 nM. The binding result in assay [3] and in assay [6] was “no binding” in each case. Moreover, the koff in assay [4] stood at 4.3e-05 s⁻¹. For the same molecule, the kon in assay [4] was determined as 140000 M⁻¹ s⁻¹.

B3: fully human monoclonal antibody 2.6.1 (ATCC Accession Number PTA-7475) (antibody, V domains shown)
VH: EVQLVESGGGLIQPGGSLRLSCAASGFTVITNYMNWVRQAPGKGLEWVSIIYTGGSTSYADSVKGRFTVSRDNSKNTLYLHMNSLRVEDTAVYYCAREIAVAGYYGMDVWGQGTTVTVS
VL: DIQMTQSPSSLSASVGDRVTITCRASQGIRNDLGWYQQKPGKAPKRLIYAASSLQSGVPSRFSGSGSGTEFTLTISSLQPEDFATYYCLQHNSYPLTFGGGTRVEIK
notes: also called mAb 2.6.1
As for B3, in assay [1], the “inhibition of adhesion of U937 cells” value came to 90% and the “inhibition … on U937 cells” value is above 90%. The Kd in assay [2] is 0.57 nM. For the same molecule, the binding result in assay [3] is “no binding”. In assay [7], the Kd is 1.09 nM. In addition, in assay [4], the Kd is 0.57 nM, the koff was determined as 4.6e-05 s⁻¹ and the kon was 81000 M⁻¹ s⁻¹. Moreover, the binding result in assay [6] was “no binding”.
